The record followed here is patent US20210340208A1 (ANWITA BIOSCIENCES, published 2021).

A word on the Kd: it is the constant that tells how readily two partners part at equilibrium. Low values mean tighter binding, high ones weaker binding.

The chains are these.
B1: hIL-2-anti-HSA A2 (ligand)
chain: APTSSSTKKTQLQLEHLLLDLQMILNGINNYKNPKLTNMTTFKFYMPKKATELKHLQCLEEELKPLEEVLNLAQSKNFHLRPRDLISNINVIVLELKGSETTFMCEYADETATIVEFLNRWITFSQSIISTLTGSGGSGGSGGSGEVQLVESGGGLVQPGGSLRLSCAASGSTWSINTLAWYRQAPGKQRDLVARISSGGSTYYADSVKGRFTISRDNSKNTLYLQMNSLRAEDTAVYYCYAQSTWYPPSWGQGTLVTVSS
modifications: glycosylated IL-2 (site and glycan not stated for the tested protein)
notes: fused to anti-HSA VHH; also called hIL-2 mutein (R38N, L40T, C125S); glycosylated IL-2
B2: hIL-2-anti-HSA A49 (ligand)
chain: B1 chain with K32E, N38R, T40L, F42C, V69C
notes: fused to anti-HSA VHH; also called hIL-2 mutein (K32E, F42C, V69C, C125S); IL-2 with an additional disulfide bond
B3: hIL-2-anti-HSA A59 (ligand)
chain: B1 chain with T3A, Q13E, F42A
notes: fused to anti-HSA VHH; also called hIL-2 mutein (T3A, Q13E, R38N, L40T, F42A, C125S)
B4: hIL-2-anti-HSA A60 (ligand)
chain: B1 chain with T3A, E15V, F42A
notes: fused to anti-HSA VHH; also called hIL-2 mutein (T3A, E15V, R38N, L40T, F42A, C125S)
B5: hIL-2-anti-HSA A65 (ligand)
chain: B1 chain with Q13N, K32E, N38R, T40L, F42C, V69C
notes: fused to anti-HSA VHH; also called hIL-2 mutein (Q13N, K32E, F42C, V69C, C125S)
B6: hIL-2-anti-HSA A61 (ligand)
chain: B1 chain with T3A, H16N, F42A
notes: fused to anti-HSA VHH; also called hIL-2 mutein (T3A, H16N, R38N, L40T, F42A, C125S)
B7: hIL-2-anti-HSA A66 (ligand)
chain: B1 chain with L19S, K32E, N38R, T40L, F42C, V69C
notes: fused to anti-HSA VHH; also called hIL-2 mutein (L19S, K32E, F42C, V69C, C125S)
B8: hIL-2-anti-HSA A73 (ligand)
chain: B1 chain with K32E, N38R, T40L, F42C, V69C, E95Q
notes: fused to anti-HSA VHH; also called hIL-2 mutein (K32E, F42C, V69C, E95Q, C125S)
B9: hIL-2-anti-HSA A71 (ligand)
chain: B1 chain with K32E, N38R, T40L, F42C, V69C, I92L
notes: fused to anti-HSA VHH; also called hIL-2 mutein (K32E, F42C, V69C, I92L, C125S)
B10: hIL-2-anti-HSA A72 (ligand)
chain: B1 chain with K32E, N38R, T40L, F42C, V69C, E95N
notes: fused to anti-HSA VHH; also called hIL-2 mutein (K32E, F42C, V69C, E95N, C125S)
B11: hIL-2-anti-HSA A64 (ligand)
chain: B1 chain with T3A, F42A, E95N
notes: fused to anti-HSA VHH; also called hIL-2 mutein (T3A, R38N, L40T, F42A, E95N, C125S)
B12: hIL-2-anti-HSA A70 (ligand)
chain: B1 chain with K32E, N38R, T40L, F42C, V69C, V91I, I92L
notes: fused to anti-HSA VHH; also called hIL-2 mutein (K32E, F42C, V69C, V91I, I92L, C125S)
B13: hIL-2-anti-HSA A69 (ligand)
chain: B1 chain with K32E, N38R, T40L, F42C, V69C, S87D
notes: fused to anti-HSA VHH; also called hIL-2 mutein (K32E, F42C, V69C, S87D, C125S)
B14: hIL-2-anti-HSA A68 (ligand)
chain: B1 chain with K32E, N38R, T40L, F42C, V69C, S87E
notes: fused to anti-HSA VHH; also called hIL-2 mutein (K32E, F42C, V69C, S87E, C125S)
B15: hIL-2-anti-HSA A67 (ligand)
chain: B1 chain with K32E, N38R, T40L, F42C, V69C, D84T
notes: fused to anti-HSA VHH; also called hIL-2 mutein (K32E, F42C, V69C, D84T, C125S)
B16: hIL-2-anti-HSA A63 (ligand)
chain: B1 chain with T3A, F42A, V91I
notes: fused to anti-HSA VHH; also called hIL-2 mutein (T3A, R38N, L40T, F42A, V91I, C125S)
B17: hIL-2-anti-HSA A62 (ligand)
chain: B1 chain with T3A, M23K, F42A
notes: fused to anti-HSA VHH; also called hIL-2 mutein (T3A, M23K, R38N, L40T, F42A, C125S)
B18: hIL-2-anti-HSA A47 (ligand)
chain: B1 chain with K32E, K35C, N38R, T40L, L72C
notes: fused to anti-HSA VHH; also called hIL-2 mutein (K32E, K35C, L72C, C125S)
B19: hIL-2-anti-HSA A36 (ligand)
chain: B1 chain with K32E, N38A, T40L
notes: fused to anti-HSA VHH; also called IL2 mutein (K32E, R38A, C125S)
B20: hIL-2-anti-HSA A56 (ligand)
chain: APTSSSTKKTQLQLEHLLLDLQMILNGIQSMEIDATKFYMPKKATELKHLQCLEEELKPLEEVLNLAQSKNFHLRPRDLISNINVIVLELKGSETTFMCEYADETATIVEFLNRWITFSQSIISTLTGSGGSGGSGGSGEVQLVESGGGLVQPGGSLRLSCAASGSTWSINTLAWYRQAPGKQRDLVARISSGGSTYYADSVKGRFTISRDNSKNTLYLQMNSLRAEDTAVYYCYAQSTWYPPSWGQGTLVTVSS
notes: fused to anti-HSA VHH; also called IL-2-IL-15 chimera 3
B21: hIL-2-anti-HSA A42 (ligand)
chain: B1 chain with K32E, N38E, T40L, F42G
notes: fused to anti-HSA VHH; also called IL2 mutein (K32E, R38E, F42G, C125S)
B22: hIL-2-anti-HSA A50 (ligand)
chain: B1 chain with K32E, N38R, T40L, Y45C, E62C
notes: fused to anti-HSA VHH; also called hIL-2 mutein (K32E, Y45C, E62C, C125S)
B23: hIL-2-anti-HSA A39 (ligand)
chain: B1 chain with K32E, N38E, T40L, F42A
notes: fused to anti-HSA VHH; also called IL2 mutein (K32E, R38E, F42A, C125S)
B24: hIL-2-anti-HSA A46 (ligand)
chain: B1 chain with K32E, N38G, T40L, F42K
notes: fused to anti-HSA VHH; also called IL2 mutein (K32E, R38G, F42K, C125S)
B25: hIL-2-anti-HSA A44 (ligand)
chain: B1 chain with K32E, N38A, T40L, F42K
notes: fused to anti-HSA VHH; also called IL2 mutein (K32E, R38A, F42K, C125S)
B26: hIL-2-anti-HSA A53 (ligand)
chain: B1 chain with N38R, T40L, F42C, V69C, K76E
notes: fused to anti-HSA VHH; also called hIL-2 mutein (F42C, V69C, K76E, C125S)
B27: hIL-2-anti-HSA A52 (ligand)
chain: B1 chain with N38R, T40L, F42C, V69C
notes: fused to anti-HSA VHH; also called hIL-2 mutein (F42C, V69C, C125S)
B28: hIL-2-anti-HSA A38 (ligand)
chain: B1 chain with K32E, N38A, T40L, F42A
notes: fused to anti-HSA VHH; also called IL2 mutein (K32E, R38A, F42A, C125S)
B29: hIL-2-anti-HSA A45 (ligand)
chain: B1 chain with K32E, N38E, T40L, F42K
notes: fused to anti-HSA VHH; also called IL2 mutein (K32E, R38E, F42K, C125S)
B30: hIL-2-anti-HSA A40 (ligand)
chain: B1 chain with K32E, N38G, T40L, F42A
notes: fused to anti-HSA VHH; also called IL2 mutein (K32E, R38G, F42A, C125S)
B31: hIL-2-anti-HSA A48 (ligand)
chain: B1 chain with K32E, N38C, T40L, L72C
notes: fused to anti-HSA VHH; also called hIL-2 mutein (K32E, R38C, L72C, C125S)
B32: hIL-2-anti-HSA A54 (ligand)
chain: APTSSSTKKTQLQLEHLLLDLQMILNGINNYENPKLTDATLYMPKKATELKHLQCLEEELKPLEEVLNLAQSKNFHLRPRDLISNINVIVLELKGSETTFMCEYADETATIVEFLNRWITFSQSIISTLTGSGGSGGSGGSGEVQLVESGGGLVQPGGSLRLSCAASGSTWSINTLAWYRQAPGKQRDLVARISSGGSTYYADSVKGRFTISRDNSKNTLYLQMNSLRAEDTAVYYCYAQSTWYPPSWGQGTLVTVSS
notes: fused to anti-HSA VHH; also called IL-2-IL-15 chimera 1
B33: hIL-2-anti-HSA A55 (ligand)
chain: APTSSSTKKTQLQLEHLLLDLQMILNGIQSMEIDATTFKFYMPKKATELKHLQCLEEELKPLEEVLNLAQSKNFHLRPRDLISNINVIVLELKGSETTFMCEYADETATIVEFLNRWITFSQSIISTLTGSGGSGGSGGSGEVQLVESGGGLVQPGGSLRLSCAASGSTWSINTLAWYRQAPGKQRDLVARISSGGSTYYADSVKGRFTISRDNSKNTLYLQMNSLRAEDTAVYYCYAQSTWYPPSWGQGTLVTVSS
notes: fused to anti-HSA VHH; also called IL-2-IL-15 chimera 2

Where a chain is given by its changes, count along the chain named. Names may count otherwise.

The first experiment has as its target T1, human CD122-Fc (AbroBio) (human, UniProt P14784 27-239).
T1 construct: also called IL-2Rβ; not shown: Fc part and any linker of the bought protein are not described; captured on an anti-human Fc sensor
T1 sequence: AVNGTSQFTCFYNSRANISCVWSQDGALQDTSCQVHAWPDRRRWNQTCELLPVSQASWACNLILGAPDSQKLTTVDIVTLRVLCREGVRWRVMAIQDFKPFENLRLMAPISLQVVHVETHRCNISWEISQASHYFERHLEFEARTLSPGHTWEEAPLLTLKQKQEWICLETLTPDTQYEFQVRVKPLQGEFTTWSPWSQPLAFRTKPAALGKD
The experiment can be described thus: BLI (Octet RED96), CD122-Fc on AHC sensor, 400 nM hIL-2 polypeptide. The procedure: OCTET® RED96 was used to characterize the interactions of a human CD122-Fc (AbroBio) with a wild-type hIL-2 and hIL-2 muteins. Briefly, an anti-human Fc sensor (AHC) loaded with the human CD122 was dip into 400 nM of an hIL-2 polypeptide. The binding signaling of fusion protein A1 was normalized to 1.
(In general: In BLI a coated tip is dipped into the sample, and binding shifts an interference pattern.)
Turning to B1, the “CD122 Binding Response (A1 normalized to 1)” value was found to be 0.68.
Regarding B2, the “CD122 Binding Response (A1 normalized to 1)” value worked out at 1.04.
Still for that read-out and setting: with B3 the figure was 0.55.
The same measure, in the same setting: with B4 the figure was 0.14; with B5, 0.5; with B6, 0.17.
Same read-out and setting: the value for B7 was 0.65.
Turning to B8, the “CD122 Binding Response (A1 normalized to 1)” value amounted to 0.38.
As for B9, the “CD122 Binding Response (A1 normalized to 1)” value turned out to be 1.44.
For the molecule B10, the “CD122 Binding Response (A1 normalized to 1)” value is 0.39.
With B11, the “CD122 Binding Response (A1 normalized to 1)” value is 0.22.
Regarding B12, the “CD122 Binding Response (A1 normalized to 1)” value came out at 1.31.
As for B13, the “CD122 Binding Response (A1 normalized to 1)” value is 1.93.
As for B14, the “CD122 Binding Response (A1 normalized to 1)” value turned out to be 1.72.
The same measure, in the same setting: the value for B15 was 0.3; that for B16 was 0.35.
For B17, the “CD122 Binding Response (A1 normalized to 1)” value was found to be 0.29.

In the next experiment the target is T2, IL-2Rα-Fc fusion protein (human, UniProt P01589 22-240).
T2 construct: also called human IL-2Rα (CD25); CD25; not shown: Fc part and any linker are not described; captured on an anti-human IgG Fc sensor
T2 sequence: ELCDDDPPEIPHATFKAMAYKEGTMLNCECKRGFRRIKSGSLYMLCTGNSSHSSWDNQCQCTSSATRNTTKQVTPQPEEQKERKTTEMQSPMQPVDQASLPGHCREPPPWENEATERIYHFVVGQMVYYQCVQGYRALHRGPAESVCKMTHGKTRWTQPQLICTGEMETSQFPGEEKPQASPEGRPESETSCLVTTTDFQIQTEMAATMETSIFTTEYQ
The experiment can be described thus: BLI (Octet RED96), IL-2Rα-Fc on AHC biosensor, global fit. The procedure:
(§1) OCTET® RED96 was used to characterize the interactions of a wild-type hIL-2 and hIL-2 muteins with a human IL-2Rα (CD25). Briefly, an IL-2Rα-Fc fusion protein was loaded onto an anti-human IgG Fc capture (AHC) biosensor. The biosensor was then dipped into a solution containing a wild-type hIL-2 (WT IL-2) or an IL-2 mutein at various concentrations. Primary experimental data was analyzed with global fitting to determine a binding affinity (Kd).
In turn, B18 showed a Kd of over 15 nM.
The same measure, in the same setting: the value for B19 was 50 nM.

Another experiment deals with T2, IL-2Rα-Fc fusion protein. The experiment is described as follows: BLI (Octet RED96), IL-2Rα-Fc on AHC biosensor. The procedure:
as §1
In the case of B20, the binding result is given as “no binding”.
With B1, the binding result is reported as “no binding”.
On to B2, for which the binding result is listed as “no binding”.
On the same count and under the same terms, the value for B21 was “no binding”; that for B22 was “no binding”.
Take B23: the binding result is reported as “no binding”.
Take B24: the binding result is reported as “no binding”.
The same measure, in the same setting: the value for B25 was “no binding”; that for B26 was “no binding”; that for B27 was “no binding”.
Take B28: the binding result is recorded as “no binding”.
Turning to B29, the binding result is listed as “no binding”.
For the molecule B30, the binding result was “no binding”.
With B31, the binding result is reported as “no binding”.
On the same count and under the same terms, with B32 the entry was “no binding”; with B33, “no binding”.
